Legend:
[1] = molecular target: T1, human ribonuclease inhibitor (human, UniProt P13489 2-461); assay: calculated from Kd: ΔΔG = -RTln(Kd wild-type/Kd variant)
T1 construct: also called hRI; hR1
T1 sequence: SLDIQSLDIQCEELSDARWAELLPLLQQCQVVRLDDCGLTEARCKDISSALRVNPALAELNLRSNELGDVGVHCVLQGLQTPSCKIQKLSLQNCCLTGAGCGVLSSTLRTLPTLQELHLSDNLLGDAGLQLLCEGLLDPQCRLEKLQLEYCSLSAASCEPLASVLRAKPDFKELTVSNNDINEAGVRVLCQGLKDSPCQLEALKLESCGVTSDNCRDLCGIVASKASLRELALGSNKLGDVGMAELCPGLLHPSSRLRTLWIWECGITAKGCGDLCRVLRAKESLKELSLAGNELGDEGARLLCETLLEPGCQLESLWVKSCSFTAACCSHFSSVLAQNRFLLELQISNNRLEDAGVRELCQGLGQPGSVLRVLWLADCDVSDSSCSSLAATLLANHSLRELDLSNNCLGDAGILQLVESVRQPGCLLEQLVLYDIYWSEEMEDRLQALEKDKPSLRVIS
Source text: (§1) Values for Kd were obtained by nonlinear least-squares analysis of the binding isotherm using the program […] 5.5 (Red Rock Software, Salt Lake City, Utah).

[2] = molecular target: T1, human ribonuclease inhibitor; assay: ΔΔG of R39D/N67D/N88A/G89D/R91D RNase 1 minus ΔΔG of this variant
Source text: as §1

[3] = molecular target: T1, human ribonuclease inhibitor; assay: fluorescence competition assay with fluorescein-labeled G88R RNase A for hRI
Source text: as §1
Data points are the mean (±SE) of at least three separate measurements.

[4] = molecular target: T1, human ribonuclease inhibitor; assay: constant used in the fluorescence competition assay
Source text: as §1

B1: G38R/R39G/N67R/N88R RNase 1 (enzyme)
chain: KESRAKKFQRQHMDSDSSPSSSSTYCNQMMRRRNMTQRGCKPVNTFVHEPLVDVQNVCFQEKVTCKRGQGNCYKSNSSMHITDCRLTRGSRYPNCAYRTSPKERHIIVACEGSPYVPVHFDASVEDST
notes: Made by site-directed mutagenesis and purified like wild-type RNase 1
ΔΔG [1]: 3 kcal/mol

B2: N67D/N88A/G89D/R91D RNase 1 (enzyme)
chain: KESRAKKFQRQHMDSDSSPSSSSTYCNQMMRRRNMTQGRCKPVNTFVHEPLVDVQNVCFQEKVTCKDGQGNCYKSNSSMHITDCRLTADSDYPNCAYRTSPKERHIIVACEGSPYVPVHFDASVEDST
ΔΔG [1]: 7.3 kcal/mol
ΔΔΔG [2]: 2.2 kcal/mol

B3: R39D/N67D/G89D/R91D RNase 1 (enzyme)
chain: KESRAKKFQRQHMDSDSSPSSSSTYCNQMMRRRNMTQGDCKPVNTFVHEPLVDVQNVCFQEKVTCKDGQGNCYKSNSSMHITDCRLTNDSDYPNCAYRTSPKERHIIVACEGSPYVPVHFDASVEDST
ΔΔG [1]: 9.1 kcal/mol
ΔΔΔG [2]: 0.4 kcal/mol
Kd [3]: 1000 nM

B4: R39D/N67D/N88A/G89D RNase 1 (enzyme)
chain: KESRAKKFQRQHMDSDSSPSSSSTYCNQMMRRRNMTQGDCKPVNTFVHEPLVDVQNVCFQEKVTCKDGQGNCYKSNSSMHITDCRLTADSRYPNCAYRTSPKERHIIVACEGSPYVPVHFDASVEDST
ΔΔG [1]: 6.7 kcal/mol
ΔΔΔG [2]: 2.8 kcal/mol

B5: R39D/N67D/N88A/G89D/R91D RNase 1 (enzyme)
chain: KESRAKKFQRQHMDSDSSPSSSSTYCNQMMRRRNMTQGDCKPVNTFVHEPLVDVQNVCFQEKVTCKDGQGNCYKSNSSMHITDCRLTADSDYPNCAYRTSPKERHIIVACEGSPYVPVHFDASVEDST
ΔΔG [1]: 9.5 kcal/mol

B6: R39D/N67D/N88A/R91D RNase 1 (enzyme)
chain: KESRAKKFQRQHMDSDSSPSSSSTYCNQMMRRRNMTQGDCKPVNTFVHEPLVDVQNVCFQEKVTCKDGQGNCYKSNSSMHITDCRLTAGSDYPNCAYRTSPKERHIIVACEGSPYVPVHFDASVEDST
ΔΔG [1]: 8.4 kcal/mol
ΔΔΔG [2]: 1.1 kcal/mol

B7: R39D/N88A/G89D/R91D RNase 1 (enzyme)
chain: KESRAKKFQRQHMDSDSSPSSSSTYCNQMMRRRNMTQGDCKPVNTFVHEPLVDVQNVCFQEKVTCKNGQGNCYKSNSSMHITDCRLTADSDYPNCAYRTSPKERHIIVACEGSPYVPVHFDASVEDST
ΔΔG [1]: 7.6 kcal/mol
ΔΔΔG [2]: 1.9 kcal/mol

B8: R39L/N67L/N88A/G89L/R91L RNase 1 (enzyme)
chain: KESRAKKFQRQHMDSDSSPSSSSTYCNQMMRRRNMTQGLCKPVNTFVHEPLVDVQNVCFQEKVTCKLGQGNCYKSNSSMHITDCRLTALSLYPNCAYRTSPKERHIIVACEGSPYVPVHFDASVEDST
ΔΔG [1]: 7.1 kcal/mol
ΔΔΔG [2]: 2.4 kcal/mol
Kd [3]: 30 nM

B9: fluorescein-labeled G88R RNase A (enzyme)
chain: KETAAAKFERQHMDSSTSCASSSNYCNQMMKSRNLTKDRCKPVNTFVHESLADVQAVCSQKNVACKNGQTNCYQSYSTMSITDCRETRSSKYPNCAYKTTQANKHIIVACEGNPYVPVHFDASV
modifications: fluorescein on Cys19 (F*-A19C)
notes: also called F*-A19C G88R RNase A; fluorescently-labeled G88R RNase A
Kd [4]: 1.4 nM

— US20090311784A1 (WISCONSIN ALUMNI RESEARCH FOUNDATION, published 2009)
